In the supplement of paper PMC10724198:
± gives the standard deviation of the averaged measurements.

The sequences below were run on Saccharomyces cerevisiae (assay: protein stability index of tFT-peptide fusion (C-terminal peptide) (PSI (0-1 scale)); higher = more stable (slower turnover)). Conditions: genetic background: wild type; temperature: 30 C.
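Note: PSI is a weighted mean of sequencing reads over stability bins, variants kept only with over 10 reads, mCherry proximal and sfGFP distal, peptide attached via GGGS linker.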

In order of falling protein stability index:
1. SLIDPLGNLFNS  0.752 ± 0.041
2. SYWNSSPKCGNW  0.744 ± 0.0092
3. SRVSEFVIPLGR  0.719 ± 0.033
4. SPSRAGQHLYYP  0.718 ± 0.034
5. SPTRTCTAIRTP  0.712 ± 0.034
6. VGKGAGVRDGSR  0.707 ± 0.026
7. TVCSWSALSRFM  0.587 ± 0.15
8. SFPPLPPLPLPP  0.571 ± 0.2
9. SPCSNFLECLSF  0.561 ± 0.11
10. VFFLSFIFRFFL  0.532 ± 0.048
11. VFFRVLVAGCRQ  0.522 ± 0.084
12. SVVVLHVHVRPP  0.517 ± 0.12
13. VARRRQQWMRGS  0.517 ± 0.041
14. TVILVLFPSPFL  0.51 ± 0.021
15. VGLLFGWVWSLW  0.485 ± 0.021
16. VFCFCRFHFFCA  0.484 ± 0.026
17. SSVCVLVSCVLG  0.4818 ± 0.0031
18. VCLVFLFQFVLI  0.481 ± 0.011
19. SRLLGVKVSLVC  0.472 ± 0.032
20. VCAFCLFFVPLP  0.47 ± 0.013
21. SPGGALVFFVLV  0.467 ± 0.0054
22. VGASLVVIAIGV  0.466 ± 0.032
23. SRGGVFYVRIHS  0.455 ± 0.051
24. VMIFYVLGRVWD  0.455 ± 0.0091
25. TLVFPRFLFLVV  0.452 ± 0.066
26. SLPCCKVVFCVI  0.4491 ± 0.003
27. SLLFLVLFFPLV  0.432 ± 0.023
28. VGYSLFTFLFCA  0.432 ± 0.0057
29. SSGIGLFVWVYG  0.421 ± 0.014
30. VCFWCLYVMFSL  0.418 ± 0.018
31. VFCCHSSRFVFA  0.414 ± 0.022
32. VCRCFPVCLFSF  0.413 ± 0.031
33. VGLWFLCSLAFS  0.401 ± 0.006
34. TNHRVRHWILRV  0.396 ± 0.031
35. TRSLLFANRCIV  0.396 ± 0.014
36. SLVIRLNIRLIL  0.394 ± 0.011
37. SWCLLVWIGGVF  0.388 ± 0.094
38. SVQICGFWLILG  0.386 ± 0.06
39. TCRLIQLTVTLH  0.386 ± 0.053
40. SFFFLILFLFRD  0.385 ± 0.053
41. TLCHLTLICVRE  0.382 ± 0.027
42. SVGWGFWARFIG  0.379 ± 0.069
43. SVLALLWVGCWL  0.378 ± 0.055
44. SFLACFVLAFFC  0.372 ± 0.014
45. SSAFFFLLFSLA  0.366 ± 0.013
46. VAFFSVFYWLEC  0.365 ± 0.023
47. SLIFLLVLILSL  0.363 ± 0.074
48. TCVVCSCVLQCV  0.362 ± 0.04
49. SFTRYIFFLMFF  0.355 ± 0.015
50. SPGFVLLAVLVI  0.347 ± 0.086
51. VLVRVIYLLVSG  0.347 ± 0.02
52. VIQKKKKNKITS  0.346 ± 0.033
53. VFGCHHLEVSVC  0.34 ± 0.0065
54. SVRGGSFLVHLC  0.337 ± 0.043
55. SGPTIRRRLFVH  0.333 ± 0.0092
56. TPLLPPSPPPSR  0.3328 ± 0.0026
57. VFRECSFFLVCC  0.333 ± 0.036
58. SSLLLLCCLLVG  0.332 ± 0.01
59. VCMVLCRWRGLG  0.331 ± 0.01
60. SRFFSSSFYRLC  0.324 ± 0.046
61. SWGRGADRWRRA  0.319 ± 0.056
62. SPRSIALLHLFS  0.3 ± 0.044
63. VLVWLRLRVGLR  0.3002 ± 0.00052
64. TRPHPLRRVFIF  0.293 ± 0.026
65. VFFFVSFFAFSS  0.288 ± 0.053
66. SGPCSPRNLRRL  0.281 ± 0.018
67. VLYCRSCFLRVS  0.281 ± 0.021
68. VIVIQGFVFVLG  0.279 ± 0.073
69. VFFPCRLLPLLF  0.27 ± 0.023
70. VCVRLVHCLVLV  0.265 ± 0.031
71. VCLLVSVCLLWL  0.252 ± 0.015
72. VFGVWVVVGCVG  0.248 ± 0.0043
73. VLVLLVCVAALV  0.239 ± 0.0026
74. VCLFSVCLWFVS  0.21 ± 0.044
75. VFRHFYTFLALC  0.16 ± 0.0087
76. VFTGYSAFLLLC  0.144 ± 0.011
77. VLFSVWFFLVLV  0.117 ± 0.017
78. VCIPLLVIRFLV  0.109 ± 0.0095

The sequences below were run on Saccharomyces cerevisiae in the same assay as above. Conditions: genetic background: cdc34-1; temperature: 37 C.
Description: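 MPS profiling in S. cerevisiae of the tFT-X12 degron library: putative degron peptides plus stable controls, 12 aa, fused to the C-terminus of a sfGFP-mCherry timer. Cells are FACS-sorted into 8 mCherry/sfGFP bins and deep-sequenced. PSI runs from 0 (unstable) to 1 (stable). Backgrounds are wild type, das1Δ and doa10Δ at 30 °C, and wild type, das1Δ, cdc34-1 and cdc53-1 at 37 °C; 2-3 technical replicates each.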

In order of rising protein stability index:
1. VFGVWVVVGCVG  0.028 ± 0.007
2. VLFSVWFFLVLV  0.0557 ± 0.017
3. VCLFSVCLWFVS  0.0838 ± 0.025
4. VCIPLLVIRFLV  0.098 ± 0.013
5. VLVLLVCVAALV  0.1393 ± 0.00032
6. SPGFVLLAVLVI  0.1636 ± 0.0011
7. VCLLVSVCLLWL  0.172 ± 0.0043
8. VLVWLRLRVGLR  0.212 ± 0.025
9. VFFFVSFFAFSS  0.213 ± 0.0054
10. TLCHLTLICVRE  0.221 ± 0.0099
11. VCVRLVHCLVLV  0.2359 ± 0.0019
12. VFGCHHLEVSVC  0.248 ± 0.012
13. VFRECSFFLVCC  0.255 ± 0.0076
14. VLVRVIYLLVSG  0.276 ± 0.007
15. VAFFSVFYWLEC  0.287 ± 0.069
16. SWCLLVWIGGVF  0.288 ± 0.038
17. VIVIQGFVFVLG  0.2898 ± 0.0021
18. TCRLIQLTVTLH  0.3115 ± 0.0026
19. VFTGYSAFLLLC  0.325 ± 0.011
20. VFRHFYTFLALC  0.338 ± 0.043
21. TLVFPRFLFLVV  0.348 ± 0.02
22. SVLALLWVGCWL  0.355 ± 0.0064
23. SSLLLLCCLLVG  0.365 ± 0.029
24. SFFFLILFLFRD  0.372 ± 0.11
25. SFLACFVLAFFC  0.4055 ± 0.00023
26. SLIFLLVLILSL  0.412 ± 0.023
27. SSAFFFLLFSLA  0.4227 ± 0.003
28. SFTRYIFFLMFF  0.438 ± 0.051
29. VGLWFLCSLAFS  0.444 ± 0.0079
30. VCFWCLYVMFSL  0.46 ± 0.043
31. SLVIRLNIRLIL  0.462 ± 0.021
32. SSVCVLVSCVLG  0.462 ± 0.019
33. SSGIGLFVWVYG  0.465 ± 0.0058
34. TCVVCSCVLQCV  0.47 ± 0.041
35. VCLVFLFQFVLI  0.482 ± 0.094
36. SLLFLVLFFPLV  0.4885 ± 0.00069
37. SVQICGFWLILG  0.512 ± 0.031
38. VGASLVVIAIGV  0.5122 ± 0.0012
39. SLPCCKVVFCVI  0.5166 ± 0.001
40. VARRRQQWMRGS  0.517 ± 0.066
41. VFFPCRLLPLLF  0.517 ± 0.0066
42. SRLLGVKVSLVC  0.518 ± 0.025
43. VFFRVLVAGCRQ  0.537 ± 0.04
44. VLYCRSCFLRVS  0.543 ± 0.021
45. SPGGALVFFVLV  0.552 ± 0.038
46. VGYSLFTFLFCA  0.579 ± 0.014
47. TVILVLFPSPFL  0.589 ± 0.036
48. VCAFCLFFVPLP  0.5888 ± 0.00072
49. VFFLSFIFRFFL  0.594 ± 0.022
50. VCMVLCRWRGLG  0.601 ± 0.028
51. SVRGGSFLVHLC  0.614 ± 0.096
52. VIQKKKKNKITS  0.617 ± 0.004
53. SVVVLHVHVRPP  0.618 ± 0.035
54. VCRCFPVCLFSF  0.6178 ± 0.0049
55. VFCFCRFHFFCA  0.621 ± 0.066
56. SFPPLPPLPLPP  0.64 ± 0.032
57. VFCCHSSRFVFA  0.642 ± 0.027
58. VGLLFGWVWSLW  0.644 ± 0.02
59. SWGRGADRWRRA  0.645 ± 0.042
60. SGPTIRRRLFVH  0.647 ± 0.021
61. SRGGVFYVRIHS  0.647 ± 0.043
62. TPLLPPSPPPSR  0.647 ± 0.02
63. SPRSIALLHLFS  0.648 ± 0.063
64. TRSLLFANRCIV  0.66 ± 0.047
65. TNHRVRHWILRV  0.665 ± 0.013
66. TRPHPLRRVFIF  0.669 ± 0.034
67. SRFFSSSFYRLC  0.675 ± 0.036
68. SPSRAGQHLYYP  0.684 ± 0.028
69. SVGWGFWARFIG  0.686 ± 0.057
70. SPTRTCTAIRTP  0.689 ± 0.068
71. TVCSWSALSRFM  0.691 ± 0.042
72. VGKGAGVRDGSR  0.693 ± 0.068
73. SGPCSPRNLRRL  0.699 ± 0.032
74. SRVSEFVIPLGR  0.7038 ± 0.0057
75. SLIDPLGNLFNS  0.71 ± 0.015
76. SYWNSSPKCGNW  0.712 ± 0.064
77. SPCSNFLECLSF  0.714 ± 0.03
